B1: Progranulin (Homo sapiens), P28799 (parent)
chain: MWTLVSWVALTAGLVAGTRCPDGQFCPVACCLDPGGASYSCCRPLLDKWPTTLSRHLGGPCQVDAHCSAGHSCIFTVSGTSSCCPFPEAVACGDGHHCCPRGFHCSADGRSCFQRSGNNSVGAIQCPDSQFECPDFSTCCVMVDGSWGCCPMPQASCCEDRVHCCPHGAFCDLVHTRCITPTGTHPLAKKLPAQRTNRAVALSSSVMCPDARSRCPDGSTCCELPSGKYGCCPMPNATCCSDHLHCCPQDTVCDLIQSKCLSKENATTDLLTKLPAHTVGDVKCDMEVSCPDGYTCCRLQSGAWGCCPFTQAVCCEDHIHCCPAGFTCDTQKGTCEQGPHQVPWMEKAPAHLSLPDPQALKRDVPCDNVSSCPSSDTCCQLTSGEWGCCPIPEAVCCSDHQHCCPQGYTCVAEGQCQRGSEIVAGLEKMPARRASLSHPRDIGCDQHTSCPVGQTCCPSLGGSWACCQLPHAVCCEDRQHCCPAGYTCNVKARSCEKEVVSAQPATFLARSPHVGVKDVECGEGHFCHDNQTCCRDNRQGWACCPYRQGVCCADRRHCCPAGFRCAARGTKCLRREAPRWDAPLRDPALRQLL
partner: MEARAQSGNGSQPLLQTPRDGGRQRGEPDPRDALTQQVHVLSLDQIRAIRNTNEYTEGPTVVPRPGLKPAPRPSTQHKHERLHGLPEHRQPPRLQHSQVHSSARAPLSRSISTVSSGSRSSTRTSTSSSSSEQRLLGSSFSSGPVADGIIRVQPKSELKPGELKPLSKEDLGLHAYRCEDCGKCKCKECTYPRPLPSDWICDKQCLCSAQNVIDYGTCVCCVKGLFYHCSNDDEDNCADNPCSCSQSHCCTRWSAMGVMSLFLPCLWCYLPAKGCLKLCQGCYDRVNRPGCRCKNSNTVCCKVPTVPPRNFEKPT
B2: Vitamin D3 receptor (Homo sapiens), P11473 (parent)
chain: MEAMAASTSLPDPGDFDRNVPRICGVCGDRATGFHFNAMTCEGCKGFFRRSMKRKALFTCPFNGDCRITKDNRRHCQACRLKRCVDIGMMKEFILTDEEVQRKREMILKRKEEEALKDSLRPKLSEEQQRIIAILLDAHHKTYDPTYSDFCQFRPPVRVNDGGGSHPSRPNSRHTPSFSGDSSSSCSDHCITSSDMMDSSSFSNLDLSEEDSDDPSVTLELSQLSMLPHLADLVSYSIQKVIGFAKMIPGFRDLTSEDQIVLLKSSAIEVIMLRSNESFTMDDMSWTCGNQDYKYRVSDVTKAGHSLELIEPLIKFQVGLKKLNLHEEEHVLLMAICIVSPDRPGVQDAALIEAIQDRLSNTLQTYIRCRHPPPGSHLLYAKMIQKLADLRSLNEEHSKQYRCLSFQPECSMKLTPLVLEVFGNEIS
B3: Cytidine deaminase (Homo sapiens), P32320 (parent)
chain: MAQKRPACTLKPECVQQLLVCSQEAKKSAYCPYSHFPVGAALLTQEGRIFKGCNIENACYPLGICAERTAIQKAVSEGYKDFRAIAIASDMQDDFISPCGACRQVMREFGTNWPVYMTKPDGTYIVMTVQELLPSSFGPEDLQKTQ
partner: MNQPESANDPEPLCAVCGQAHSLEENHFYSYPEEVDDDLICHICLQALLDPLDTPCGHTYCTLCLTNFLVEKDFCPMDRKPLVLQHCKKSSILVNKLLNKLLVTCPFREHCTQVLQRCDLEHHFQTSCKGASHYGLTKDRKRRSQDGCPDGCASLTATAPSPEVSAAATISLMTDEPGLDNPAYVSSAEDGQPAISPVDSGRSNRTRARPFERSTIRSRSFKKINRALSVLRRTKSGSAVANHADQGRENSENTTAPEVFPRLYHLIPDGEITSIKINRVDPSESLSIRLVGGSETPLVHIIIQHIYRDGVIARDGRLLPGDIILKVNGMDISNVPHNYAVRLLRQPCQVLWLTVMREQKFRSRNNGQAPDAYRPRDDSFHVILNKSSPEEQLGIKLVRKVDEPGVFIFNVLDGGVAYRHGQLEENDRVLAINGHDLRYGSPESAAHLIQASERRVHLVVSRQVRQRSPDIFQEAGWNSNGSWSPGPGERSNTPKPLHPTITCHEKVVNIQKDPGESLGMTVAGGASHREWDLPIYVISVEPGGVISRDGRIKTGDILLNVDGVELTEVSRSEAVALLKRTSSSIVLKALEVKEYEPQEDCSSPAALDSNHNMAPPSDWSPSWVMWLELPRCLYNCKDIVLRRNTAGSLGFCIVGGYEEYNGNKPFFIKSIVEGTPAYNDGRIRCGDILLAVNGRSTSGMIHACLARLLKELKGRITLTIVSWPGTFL
B4: Tyrosine-protein kinase BTK (Homo sapiens), Q06187 (parent)
chain: MAAVILESIFLKRSQQKKKTSPLNFKKRLFLLTVHKLSYYEYDFERGRRGSKKGSIDVEKITCVETVVPEKNPPPERQIPRRGEESSEMEQISIIERFPYPFQVVYDEGPLYVFSPTEELRKRWIHQLKNVIRYNSDLVQKYHPCFWIDGQYLCCSQTAKNAMGCQILENRNGSLKPGSSHRKTKKPLPPTPEEDQILKKPLPPEPAAAPVSTSELKKVVALYDYMPMNANDLQLRKGDEYFILEESNLPWWRARDKNGQEGYIPSNYVTEAEDSIEMYEWYSKHMTRSQAEQLLKQEGKEGGFIVRDSSKAGKYTVSVFAKSTGDPQGVIRHYVVCSTPQSQYYLAEKHLFSTIPELINYHQHNSAGLISRLKYPVSQQNKNAPSTAGLGYGSWEIDPKDLTFLKELGTGQFGVVKYGKWRGQYDVAIKMIKEGSMSEDEFIEEAKVMMNLSHEKLVQLYGVCTKQRPIFIITEYMANGCLLNYLREMRHRFQTQQLLEMCKDVCEAMEYLESKQFLHRDLAARNCLVNDQGVVKVSDFGLSRYVLDDEYTSSVGSKFPVRWSPPEVLMYSKFSSKSDIWAFGVLMWEIYSLGKMPYERFTNSETAEHIAQGLRLYRPHLASEKVYTIMYSCWHEKADERPTFKILLSNILDVMDEES
B5: EF-hand domain-containing protein 1 (Homo sapiens), Q5JVL4 (parent)
chain: MVSNPVHGLPFLPGTSFKDSTKTAFHRSQTLSYRNGYAIVRRPTVGIGGDRLQFNQLSQAELDELASKAPVLTYGQPKQAPPADFIPAHVAFDKKVLKFDAYFQEDVPMSTEEQYRIRQVNIYYYLEDDSMSVIEPVVENSGILQGKLIKRQRLAKNDRGDHYHWKDLNRGINITIYGKTFRVVDCDQFTQVFLESQGIELNPPEKMALDPYTELRKQPLRKYVTPSDFDQLKQFLTFDKQVLRFYAIWDDTDSMYGECRTYIIHYYLMDDTVEIREVHERNDGRDPFPLLMNRQRVPKVLVENAKNFPQCVLEISDQEVLEWYTAKDFIVGKSLTILGRTFFIYDCDPFTRRYYKEKFGITDLPRIDVSKREPPPVKQELPPYNGFGLVEDSAQNCFALIPKAPKKDVIKMLVNDNKVLRYLAVLESPIPEDKDRRFVFSYFLATDMISIFEPPVRNSGIIGGKYLGRTKVVKPYSTVDNPVYYGPSDFFIGAVIEVFGHRFIILDTDEYVLKYMESNAAQYSPEALASIQNHVRKREAPAPEAESKQTEKDPGVQELEALIDTIQKQLKDHSCKDNIREAFQIYDKEASGYVDRDMFFKICESLNVPVDDSLVKELIRMCSHGEGKINYYNFVRAFSN
partner: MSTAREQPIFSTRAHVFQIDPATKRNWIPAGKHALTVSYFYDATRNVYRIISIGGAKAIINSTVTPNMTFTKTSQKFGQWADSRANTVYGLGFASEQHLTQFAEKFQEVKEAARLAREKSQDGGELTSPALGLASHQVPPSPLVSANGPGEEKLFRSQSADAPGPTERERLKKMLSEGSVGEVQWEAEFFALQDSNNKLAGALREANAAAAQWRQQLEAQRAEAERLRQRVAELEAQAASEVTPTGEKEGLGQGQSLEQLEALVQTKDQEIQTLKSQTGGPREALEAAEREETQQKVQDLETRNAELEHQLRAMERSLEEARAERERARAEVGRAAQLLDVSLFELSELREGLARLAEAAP
B6: Pyridoxine-5'-phosphate oxidase (Homo sapiens), Q9NVS9 (parent)
chain: MTCWLRGVTATFGRPAEWPGYLSHLCGRSAAMDLGPMRKSYRGDREAFEETHLTSLDPVKQFAAWFEEAVQCPDIGEANAMCLATCTRDGKPSARMLLLKGFGKDGFRFFTNFESRKGKELDSNPFASLVFYWEPLNRQVRVEGPVKKLPEEEAECYFHSRPKSSQIGAVVSHQSSVIPDREYLRKKNEELEQLYQDQEVPKPKSWGGYVLYPQVMEFWQGQTNRLHDRIVFRRGLPTGDSPLGPMTHRGEEDWLYERLAP

Variants of B1 are the subject of the first test. As to conditions: with spy2_human SPRY2, O43597.
As to P451L, the “effect of a mutation on the interaction” value is “disrupting interaction strength”.
Regarding R432C, the “effect of a mutation on the interaction” value was “disrupting interaction strength”.

In the next test the parent is B2. The note with it: with meox2_human MEOX2, P50222.
Target sequence in this assay (P50222 whole entry): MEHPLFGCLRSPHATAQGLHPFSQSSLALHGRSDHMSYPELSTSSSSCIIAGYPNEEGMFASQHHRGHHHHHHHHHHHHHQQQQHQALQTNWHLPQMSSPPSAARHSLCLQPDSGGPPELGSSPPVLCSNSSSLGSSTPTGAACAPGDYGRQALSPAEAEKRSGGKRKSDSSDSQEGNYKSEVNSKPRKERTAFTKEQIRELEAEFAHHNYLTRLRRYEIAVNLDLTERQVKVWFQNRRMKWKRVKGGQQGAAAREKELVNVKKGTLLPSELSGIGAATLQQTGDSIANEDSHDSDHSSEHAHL
As for C190W, the “effect of a mutation on the interaction” value is “disrupting interaction strength”.
In the case of E329K, the “effect of a mutation on the interaction” value is “disrupting interaction strength”.
Still for that read-out and setting: next, I268T: “with no effect”.
For the variant G33D, the “effect of a mutation on the interaction” value was “with no effect”.

In another test the parent is B3. The note with it: with lnx1_human LNX1, Q8TBB1.
As for A70T, the “effect of a mutation on the interaction” value is “with no effect”.

Variants of B4 are the subject of another test. The note with it: with meox2_human MEOX2, P50222.
Target sequence in this assay (P50222 whole entry): as above
Turning to P565L, the “effect of a mutation on the interaction” value was “disrupting interaction strength”.

Another test covers variants of B5. As to conditions: with home3_human HOMER3, Q9NSC5.
For the variant R159W, the “effect of a mutation on the interaction” value is given as “with no effect”.
Still for that read-out and setting: next, P77T: “disrupting interaction strength”; R221H: “disrupting interaction strength”; A394S: “disrupting interaction strength”.
Same read-out and setting: next, M448T: “with no effect”; T508R: “with no effect”.

Variants of B6 are the subject of a further test. The note with it: with AGTRAP.
For the variant R229W, the “effect of a mutation on the interaction” value is listed as “disrupting interaction strength”.
The same measure, in the same setting: next, R116Q: “with no effect”; R95H: “disrupting interaction strength”.

In a further test the parent is B6. As to conditions: with CMTM5, Q96DZ9-2.
Sequence of CMTM5, Q96DZ9-2 (Q96DZ9 other isoform, or with tags, fused parts or gaps): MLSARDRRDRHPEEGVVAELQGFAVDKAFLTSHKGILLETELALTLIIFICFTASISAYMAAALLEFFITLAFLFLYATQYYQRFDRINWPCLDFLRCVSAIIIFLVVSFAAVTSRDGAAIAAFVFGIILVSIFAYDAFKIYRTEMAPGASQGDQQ
In the case of R229W, the “effect of a mutation on the interaction” value is recorded as “disrupting interaction strength”.
Turning to R116Q, the “effect of a mutation on the interaction” value was “with no effect”.
In the case of R95H, the “effect of a mutation on the interaction” value is recorded as “disrupting interaction strength”.
